Drawing on paper PMC7786401, this text covers AngII-stimulated β-arrestin 2 recruitment to the membrane (BRET2 between βarrestin2-RlucII and rGFP-CaaX), Emax (% WT) and AngII-stimulated β-arrestin 2 recruitment to the membrane (BRET2 between βarrestin2-RlucII and rGFP-CaaX), pEC50 of AngII for one substance.

Experiment [1] deals with angiotensin II type 1 receptor A244S (human) (UniProt P30556).
For experiment [2], the target named is angiotensin II type 1 receptor I103T (human) (UniProt P30556).
The target in experiment [3] is angiotensin II type 1 receptor I103T-A244S (human) (UniProt P30556).
In experiment [4] the target is angiotensin II type 1 receptor, wild type (human) (UniProt P30556).

βarrestin2-RlucII, sequence (P32121 whole entry): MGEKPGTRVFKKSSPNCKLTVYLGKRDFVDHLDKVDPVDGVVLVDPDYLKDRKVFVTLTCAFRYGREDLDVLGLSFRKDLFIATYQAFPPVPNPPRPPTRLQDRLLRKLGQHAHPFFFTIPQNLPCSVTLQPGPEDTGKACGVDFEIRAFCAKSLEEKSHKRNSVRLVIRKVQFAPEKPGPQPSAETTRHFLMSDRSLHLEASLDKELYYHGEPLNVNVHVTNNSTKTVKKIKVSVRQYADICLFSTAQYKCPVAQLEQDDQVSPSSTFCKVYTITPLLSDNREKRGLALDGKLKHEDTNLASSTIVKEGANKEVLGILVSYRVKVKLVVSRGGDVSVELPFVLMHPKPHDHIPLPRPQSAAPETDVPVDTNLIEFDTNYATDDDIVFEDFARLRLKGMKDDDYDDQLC

With “βarrestin2-RlucII (from UniProt P32121 1-409) (natural protein)”, the AngII-stimulated β-arrestin 2 recruitment to the membrane (BRET2 between βarrestin2-RlucII and rGFP-CaaX), Emax (% WT) came out at 106 % WT in experiment [1], 97 % WT in experiment [2] and 50 % WT in experiment [3]. In addition, the AngII-stimulated β-arrestin 2 recruitment to the membrane (BRET2 between βarrestin2-RlucII and rGFP-CaaX), pEC50 of AngII in experiment [1] is 8.68; in experiment [2], 8.54; in experiment [3], 8.5; in experiment [4], 8.49.
